From US20170165373A1

Molecular target: human BCMA (huBCMA), full length, on cells (human) (UniProt Q02223)
Experiment: FACS, H929 cells, negative control

Chain of human BCMA (huBCMA), full length, on cells (human) (Q02223 whole entry N81S): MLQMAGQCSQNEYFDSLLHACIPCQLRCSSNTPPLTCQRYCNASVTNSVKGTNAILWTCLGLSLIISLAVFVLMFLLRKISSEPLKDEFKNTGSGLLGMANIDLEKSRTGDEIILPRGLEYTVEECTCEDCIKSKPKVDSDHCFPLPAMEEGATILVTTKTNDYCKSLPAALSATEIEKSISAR

MFI: 8
Substance: hu IgG1 (antibody)
